This note sets out measurements from the nanobody polyreactivity screen of Harvey et al. (2022).

The series is described as follows: yeast display, Sf9 membrane polyspecificity reagent, FACS + sequencing; frameworks hold sequencing errors. In outline: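 Synthetic nanobody libraries on Saccharomyces cerevisiae BJ5465 were galactose-induced for 36–48 hours, stained 1 hour at 4 °C with 10% biotinylated, detergent-solubilized Sf9 membrane reagent and enriched on streptavidin microbeads. FACS then separated cells into low and high (top ~1%) gates by anti-HA (expression) and streptavidin (reagent binding) fluorescence. Genes were colony-PCR amplified, MiSeq 2 × 250 sequenced and CDR-length filtered. A clone's polyreactivity label is that of its gate of origin.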
For the sequence “QVQLVESGGGLVQAGGSLRLSCAASGSTFRWYAMGWYRQAPGKERELVASITRGGGSTYYADSVKGRFTISRDNAKNTVYLQMNSLKPEDTAVYYCAKRSLWSYYEGYYYWGQGTQVTVSS”, the “polyreactivity (PSR sort gate)” value is listed as “high polyreactivity”. The value for “QVQLVESGGGLVQAGGSLRLSCAASGSTFRYNAMGWYRQAPGKERELVAAISKGGGRTYYADSVKGRFTISRDNAKNTVYLQMNSLKPEDTAVYYCAATYGTGRRSKYGYWGQGTQVTVSS” was “high polyreactivity”.

For the sequence “QVQLVESGGGLVQAGGSLRLSCAASGSTFRYNAMGWYRQAPGKERELVAAISSGSSTNYADSVKGRFSISRDNAKNTVYLQMNSLKPEDTAVYYCAAQPGYYDDFYYWGQGTQVTVSS”, the “polyreactivity (PSR sort gate)” value was “low polyreactivity”. The entry for “QVQLVESGGGLVQAGGSLRLSCAASGSTFRYNAMGWYRQAPGKERELVAAISSSGGSTRYADSVKGRFTISRDNANNTVYLQMNSLKPEDTAVYYCAVRFYDWRYYYWGQGTQVTVSS” is “high polyreactivity”. Take “QVQLVESGGGLVQAGGSLRLSCAASGSTFRYNAMGWYRQAPGKERELVATITSGGYTNYADSVKGRFTISRDNAKNSVYLQMNSLKPVDSAVYYCATDSLFRTYVEWDRKFDYWGQGTQVTVSS”: the “polyreactivity (PSR sort gate)” value is recorded as “high polyreactivity”. The entry for “QVQLVESGGGLVQAGGSLRLSCAASGSTFRYNAMGWYRQAPGKEREMVATITWSGGSTYYADSVKGRFTISRDNAKNTVYLQMNSLKPEDTAVYYCAKLPFPVYYGGSYKYYYWGLGTQVTVSS” is “high polyreactivity”.

Turning to “QVQLVESGGGLVQAGGSLRLSCAASGSTFRYNAMGWYRQAPGTERELVAAINWSGSSTYYADSVKGRFTISRDNAKKTVYLQMNSLKPEDTAVYYCAAERPWYTKWGEYWGQGTQVTVSS”, the “polyreactivity (PSR sort gate)” value was “high polyreactivity”.

Take “QVQLVESGGGLVQAGGSLRLSCAASGSTFRYYAMGWYRQAPGKERDLVAAINRSGGSTYYADSVKGRFTISRDIAKNTVYLQMNSLKPEDTAVYYCGAPWGRHYTNPDDYWGQGTQVTVSS”: the “polyreactivity (PSR sort gate)” value is recorded as “high polyreactivity”. The value for “QVQLVESGGGLVQAGGSLRLSCAASGSTFRYYAMGWYRQAPGKERELVAAINYSGGRTYYADSVKGRFTISRDNAKNTVYLQMNCVKPEDSAVYYCAADWSYLAVTDSTSDYDPNYGYWGQGTQVNVSS” was “high polyreactivity”. As to “QVQLVESGGGLVQAGGSLRLSCAASGSTFRYYAMGWYRQAPGKERELVAAISSAGTTYYADSVKGRFTISRDNAKNTVYLQMNSLKPEDTAVYYCTARFVYHSSFAGFDYWGQGTQVTVSS”, the “polyreactivity (PSR sort gate)” value is reported as “low polyreactivity”. The entry for “QVQLVESGGGLVQAGGSLRLSCAASGSTFRYYAMGWYRQAPGKERELVAAISYRGVRTNYADSVKGRFTISRDHAKNTVYLQMNSLKPEDTAVYYCADRFGRSSSGSPYDRYGYWGQGTQVTVSS” is “high polyreactivity”. The value for “QVQLVESGGGLVQAGGSLRLSCAASGSTFRYYAMGWYRQAPGKERELVAAITRSGSTYYADSVKGRFTISRDNAKNTVYLQMNSLKREDTAVYYCNADQYYGGRYVYLRHYNYWGQGTQVTVSS” was “high polyreactivity”.

Take “QVQLVESGGGLVQAGGSLRLSCAASGSTFRYYAMGWYRQAPGKERELVAGITSAGNTYYADSVKGRFTISRDNAKNTVYLQMNSLKPEDTAVYYCAARRWKGYYYWGQGTQVTVSS”: the “polyreactivity (PSR sort gate)” value is recorded as “high polyreactivity”. The value for “QVQLVESGGGLVQAGGSLRLSCAASGSTFRYYAMGWYRQAPGKERELVAVISTSGNTYYADSVKGRFSISRDNAKITVYVQMNSLQPEETAVYYCAARGVGGQISQEYDYWGQGTQVTVSS” was “low polyreactivity”. Consider “QVQLVESGGGLVQAGGSLRLSCAASGSTFRYYDMGWYRQAPGKERELVAVISKSGARTYYADSVKGRFTISRDNAKNTVYLQMNSLKPEDTAVYYCIAVFKLDSQYAMGYWGQGTQLTVSS”, for which the “polyreactivity (PSR sort gate)” value is listed as “high polyreactivity”.

Take “QVQLVESGGGLVQAGGSLRLSCAASGSTFRYYSMGWYRQAPGKERELVASISSGGSTNYADSVKGRFTISRDNAKNTVYLQMNSLKPGDTAVYYCNADSWTVNRRYYYYRYEYWGQGTQVTVSS”: the “polyreactivity (PSR sort gate)” value is “low polyreactivity”.

For the sequence “QVQLVESGGGLVQAGGSLRLSCAASGSTFRYYVMGWYRQAPGKERELVAAISSSGGSTYYADSVKGRFTISRDNAKNTVYLQMNSLKPEDTAVYYCARDKGYVSYRYNYWGQGTQVTVSS”, the “polyreactivity (PSR sort gate)” value was “high polyreactivity”.

As for “QVQLVESGGGLVQAGGSLRLSCAASGSTFRYYVMGWYRQEPGKEREFVAAISAGGGRTYYADSVKGRFTISRDNSKNTVYLQMNSLKPEDTAVYYCAATKGNILRRSRYDYWGQGTQVTVSS”, the “polyreactivity (PSR sort gate)” value was “high polyreactivity”. The entry for “QVQLVESGGGLVQAGGSLRLSCAASGSTFSAYTMGWYRQAPGKERELVARITNGGSTYYADSVKGRFTISRDNAKNTVYLQMNSLKPEDTAVYYCAAQLGWWGSGYWGQGTQVTVSS” is “high polyreactivity”.

As to “QVQLVESGGGLVQAGGSLRLSCAASGSTFSAYTMGWYRQAPGKERELVARITNGGSTYYADSVKGRFTISRDNAKNTVYLQMNSLKPEDTAVYYCNVQYYVSYWRSYDYWGQGTQVTVSS”, the “polyreactivity (PSR sort gate)” value is on record as “high polyreactivity”. The value for “QVQLVESGGGLVQAGGSLRLSCAASGSTFSCYAMGWYRQAPGKERELVAAISSSGGTSTYADSVKARFTISRDNAKKTVYLQMNSLKPEDTAVYYCAARQYRRLRDYRHDYWGQGTQVTVSS” was “high polyreactivity”; that for “QVQLVESGGGLVQAGGSLRLSCAASGSTFSDNAMGWYRQAPGKDRELVAAINYSDGSTNYADSVKGRFTISRDNAKNTVYLQMNSLKPEDTAVYYCAVDIYFWCYGWWGPYDYWGQGTQVTVSS” was “low polyreactivity”. The entry for “QVQLVESGGGLVQAGGSLRLSCAASGSTFSDNAMGWYRQAPGKERELVAAISVTGGRTYYADSVKGRFTISRDNAKNTVYLQMNSLKPEDTAVYYCAKVTILDPYSYDYWGQGTQVTVSS” is “low polyreactivity”; for “QVQLVESGGGLVQAGGSLRLSCAASGSTFSDNVMGWYRQAPGKERELVAGITRSGGRTYYADSVKGRFTISRDNAKNTVDLQMNSLKPEDTEVYYCAARRSGSKSGLFDYWGQGTQVTVSS” it is “low polyreactivity”. The entry for “QVQLVESGGGLVQAGGSLRLSCAASGSTFSDYAMGWYRQAPGKERELVAGITETGTTTYYADSVKGRFTISRDNAKNTVYLQMNSLKPEDTAVYYCAAYVVTYYYGTGYYSYDYWGQGTQVNVSS” is “low polyreactivity”; for “QVQLVESGGGLVQAGGSLRLSCAASGSTFSEYAMGCYRQAPGKERELVAAITWDGGSTYYPDSVKGRFTISRDNAKNTVYLQMNSLKPEDTAVYYCATDGWSYSYGYWGQGTQVTVSS” it is “low polyreactivity”.

For “QVQLVESGGGLVQAGGSLRLSCAASGSTFSFNAMGWYRQAPGKERELVAAISRSGGRTYYADSVKGRFTISRDNAKNTVYLQMNSLKPEDTAVYYCNKVWFQRSVQPVEYDYWGQGTQVTVSS”, the “polyreactivity (PSR sort gate)” value is reported as “high polyreactivity”. Take “QVQLVESGGGLVQAGGSLRLSCAASGSTFSFNAMGWYRQAPGKERELVAAISYSDSTTYYADSVKGRFTISRDNAKNTVYLQMNSLKPEDTAVYYCAAETGPYYRFGGDYWGQGTQVTVSS”: the “polyreactivity (PSR sort gate)” value is reported as “high polyreactivity”. Take “QVQLVESGGGLVQAGGSLRLSCAASGSTFSGNALGWYRQPPGKERELVAAITSSGGSTDYADSVKGRFTISRDNAKNSVYLQMNSLKPEDTAVYYCNTVFHYFNSGAYNFGYWGQGTQVTVSS”: the “polyreactivity (PSR sort gate)” value is reported as “high polyreactivity”. For “QVQLVESGGGLVQAGGSLRLSCAASGSTFSGNAMGWYRQAPGKERELVAAITRSGSRTYYADSVKGRFTISRDNAKNTVYLQMNSLKPEDTAVYYCAKVGRTGDDYYYWGQGTQVTVAS”, the “polyreactivity (PSR sort gate)” value is reported as “high polyreactivity”. On to “QVQLVESGGGLVQAGGSLRLSCAASGSTFSGYAMGWYRQAPGKERELVAAINWNGGRTYYADSVKGRFTISRDNAKNTVYLQMYSLKPADTAVSYCNKQSPRGRSAVYKYDYWGQGTQVTVSS”, for which the “polyreactivity (PSR sort gate)” value is “high polyreactivity”. The value for “QVQLVESGGGLVQAGGSLRLSCAASGSTFSGYDMGWYRQAPGKERELVAAISKSGGRTYYADSVKGRFTISRDNAKNTVYLQMKSLKPEDTAVYYCNTDSPYDTYYFLWWREDYYWGQGTQVTVSS” was “low polyreactivity”; that for “QVQLVESGGGLVQAGGSLRLSCAASGSTFSGYMGWYRQAPGKERELVAAITSSGGSTYYADSVKGRFTISRDNAKNTVYLQMYSLKPEDTAVYYCAADGGYRGEDYWGQGTQVTVSS” was “high polyreactivity”. “QVQLVESGGGLVQAGGSLRLSCAASGSTFSHNAMGWYRQAPGKERELVAAISWSGVGTYADSVKGRFTISRDNAKNTVYLQMNSLKPEDTAVYYCNKVSYPSTSSSWFDYWGQGTQVTVSS”: the “polyreactivity (PSR sort gate)” value was “low polyreactivity”. The value for “QVQLVESGGGLVQAGGSLRLSCAASGSTFSIYAMGGDRQAPGKERELVAAITRRSGSTYYADSVKGRFTISRDNAKNTVSLQMNSLKPEDTAVYYCAADTWRTDYTSSYYKNRDSWGQGTQVTVSS” was “high polyreactivity”; that for “QVQLVESGGGLVQAGGSLRLSCAASGSTFSIYTMGWYRQAPGKERELVAAITRGGSTYYADSVKGRFTISRDNAKNTVYLQMNSLKPEDTAVYYCAADYVSYYRGGRYIELDYWGQGTQVTVSS” was “low polyreactivity”. With “QVQLVESGGGLVQAGGSLRLSCAASGSTFSKYTMGWYRQAPGKERELVAAISRSGGRTYYADSVKGRFTISRDNAKNTVYLQMNSLKPEDTAVYYCATVVYVFGYSSPMYYWGQGTQVTVSS”, the “polyreactivity (PSR sort gate)” value is given as “high polyreactivity”. The entry for “QVQLVESGGGLVQAGGSLRLSCAASGSTFSLNAMGWYRQAPGKERELVAAISGSGGSTYYADSVKGRFTISRDNAKHTVYLQMNSLKPEDTAVYYCNKYYYPLRKSFGYWGQGTQVTVSS” is “high polyreactivity”; for “QVQLVESGGGLVQAGGSLRLSCAASGSTFSLYAMGWYRQAPGKERELVAAISSSGGSTYYADYVKGRFTISRDNAKNTVYLQMNSLKPEDTAVYYCAAYRVGSYDYWGQGTQVTVSS” it is “high polyreactivity”; for “QVQLVESGGGLVQAGGSLRLSCAASGSTFSLYAMGWYRQAPGKERELVAAITYSGTSTYYADSVKGRFTISRDNAKNTVYLQMNSLKPEDTAVYYCNVESWGGHDFTWAVTSGGYWGQGTQVTVSS” it is “low polyreactivity”.
